This note sets out measurements from patent US20190016828A1.

human neonatal Fc-receptor (FcRn) (human), sequence (P55899 24-297 limits assumed, chain 1 of 2): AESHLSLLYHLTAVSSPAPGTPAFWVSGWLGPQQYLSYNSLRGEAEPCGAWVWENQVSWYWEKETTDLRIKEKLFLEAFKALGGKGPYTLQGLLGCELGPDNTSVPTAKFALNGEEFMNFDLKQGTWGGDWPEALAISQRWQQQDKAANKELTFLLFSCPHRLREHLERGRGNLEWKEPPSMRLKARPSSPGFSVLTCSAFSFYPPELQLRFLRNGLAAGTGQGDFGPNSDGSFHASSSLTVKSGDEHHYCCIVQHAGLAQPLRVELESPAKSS
human neonatal Fc-receptor (FcRn) (human), sequence (P61769 21-119 limits assumed, chain 2 of 2, further chain): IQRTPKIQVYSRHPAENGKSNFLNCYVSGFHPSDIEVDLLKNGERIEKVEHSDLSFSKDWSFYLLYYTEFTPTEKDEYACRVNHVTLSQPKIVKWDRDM

One experiment has as its target human neonatal Fc-receptor (FcRn) (human) (UniProt P55899). The experiment can be described thus: FcRn affinity chromatography, bispecific KiH antibody.
Regarding “bispecific antibody (knobs-into-holes), one chain with H310A”, the retention time on FcRn affinity column came out at 48.4 min.

In the case of “bispecific antibody (knobs-into-holes), one chain with H310A/H433A/Y436A”, the retention time on FcRn affinity column was 46.7 min.

“bispecific antibody (knobs-into-holes), one chain with H435A” showed a retention time on FcRn affinity column of 48.8 min.

In turn, “bispecific antibody (knobs-into-holes), one chain with I253A” showed a retention time on FcRn affinity column of 48.8 min.

On to “bispecific antibody (knobs-into-holes), one chain with L251D/L314D/L432D”, for which the retention time on FcRn affinity column amounted to 46.3 min.

“bispecific antibody (knobs-into-holes), one chain with M252Y/S254T/T256E” yielded a retention time on FcRn affinity column of 56.2 min.

A further experiment shares this target. The experiment can be described thus: FcRn affinity chromatography.
“IgG1 Fc-region molecule with L234A/L235A/P329G and symmetric Y436A”: the FcRn-affinity column retention time was 41.3 min.

Substance “bispecific antibody (knobs-into-holes), first chain with I253A/H310A/H435A and second chain with H310A” had an RT (Min) on FcRn affinity column of 0 min.

Regarding “bispecific antibody (knobs-into-holes), first chain with I253A/H310A/H435A and second chain with H435A”, the RT (Min) on FcRn affinity column came out at 0 min.

For the substance “bispecific antibody (knobs-into-holes), first chain with I253A/H310A/H435A and second chain with I253A/H310A/H435A”, the RT (Min) on FcRn affinity column was determined as 0 min.
